The target of series [1] is rS1 domain 3 (S1 D3), P0AG67.
For series [2], the target named is rS1 domain 6 (S1 D6), P0AG67.
Series [3] has as its target ribosomal protein S1 (rS1), P0AG67.
Series [4] deals with rS1 domain 2 R139A (S1 D2 R139A), P0AG67.
The target of series [5] is rS1 domain 2 (S1 D2), P0AG67.
The target of series [6] is BSA, P02769.
Series [7] concerns the target rS1 domain 5 (S1 D5), P0AG67.
In series [8] the target is rS1 domain 2 R139K (S1 D2 R139K), P0AG67.
Series [9] concerns the target rS1 domain 4 (S1 D4), P0AG67.
Series [10] concerns the target rS1 domain 1 (S1 D1), P0AG67.

This is an account of results in US20250002962.

Sequence of BSA, P02769 (P02769 25-607): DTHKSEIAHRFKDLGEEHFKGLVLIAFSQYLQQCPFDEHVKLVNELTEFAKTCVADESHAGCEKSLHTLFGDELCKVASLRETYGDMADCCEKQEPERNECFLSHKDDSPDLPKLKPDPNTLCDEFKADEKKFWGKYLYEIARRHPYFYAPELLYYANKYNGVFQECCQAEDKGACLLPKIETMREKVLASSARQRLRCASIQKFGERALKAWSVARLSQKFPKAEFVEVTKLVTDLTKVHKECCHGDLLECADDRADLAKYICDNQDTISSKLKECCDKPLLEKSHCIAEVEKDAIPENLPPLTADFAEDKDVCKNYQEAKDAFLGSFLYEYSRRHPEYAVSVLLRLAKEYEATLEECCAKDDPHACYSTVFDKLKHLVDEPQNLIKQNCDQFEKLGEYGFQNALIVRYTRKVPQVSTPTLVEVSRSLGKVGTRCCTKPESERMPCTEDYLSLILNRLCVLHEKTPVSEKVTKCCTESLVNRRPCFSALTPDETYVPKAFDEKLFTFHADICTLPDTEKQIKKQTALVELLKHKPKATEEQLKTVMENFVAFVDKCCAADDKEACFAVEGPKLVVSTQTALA

B1: ADP-ribosyltransferase ModB from Escherichia virus T4 (cloned ModB with His6 tag) (protein)
chain: MGIINLADVEQLSIKAESVDFQYDMYKKVCEKFTDFEQSVLWQCMEAKKNEALHKHLNEIIKKHLTKSPYQLYRGISKSTKELIKDLQVGEVFSTNRVDSFTTSLHTACSFSYAEYFTETILRLKTDKAFNYSDHISDIILSSPNTEFKYTYEDTDGLDSERTDNLMMIVREQEWMIPIGKYKITSISKEKLHDSFGTFKVYDIEVVELVPRGSLEHHHHHH
B1: the “RNAylation assay with single S1 domains” value is “rS1 D1, D3, D4 and D5 domains were modified to a much lesser extent” in [1]; “For rS1 domains D2 and D6 high RNAylation signals were determined” in [2]; “For rS1 domains D2 and D6 high RNAylation signals were determined” in series [5]; “rS1 D1, D3, D4 and D5 domains were modified to a much lesser extent” in series [7]; “rS1 D1, D3, D4 and D5 domains were modified to a much lesser extent” in [9]; “rS1 D1, D3, D4 and D5 domains were modified to a much lesser extent” in series [10]. The “RNAylation of rS1 with 32P-labelled 5'-NAD-RNA 8mer (SDS-PAGE, autoradiography)” value in series [3] is “ModB rapidly RNAylated its known target, ribosomal protein S1 (rS1) without detectable self-RNAylation”. For the same protein, the “ADP-ribosylation level of D2” value in series [4] and in [8] was “the ADP-ribosylation level of D2 is dramatically reduced if R139 is substituted by alanine or lysine” in each case. For the same protein, in [5], the “RNAylation with 5'-NXD-10mer-Cy5 RNAs (Tricine gel, band shift)” value was “rS1 DII was RNAylated in the presence of 5'-NXD-RNAs by ModB”. The “in vitro RNAylation and ADP-ribosylation (SDS-PAGE)” value in series [6] was “control proteins without S1 domain (BSA, NudC inactive quadruple mutant) were not”.
